Target: SARS-CoV-2 protein S receptor-binding domain (RBD), original Wuhan strain (SARS-CoV-2, UniProt P0DTC2 331-524)
Experiment: MST

B1: h1-Mpa peptide (h1 with Lys31 modified with 3-mercaptopropionic acid) (peptide)
peptide: IEEQAKTFLDKFNHQAEDLFYK
B1 was tested. Which Kd did it give?
The Kd was > 1000 µM.

B2: h2-Cys peptide (h2 with Gln76 replaced with Cys76) (peptide)
peptide: DKWSAFLKECSTIAQIYPLQEI
How did the Kd turn out when B2 was run?
Its Kd is > 1000 µM.
